Laboratory results taken from paper PMC8198530, “The Odd Faces of Oligomers: The Case of TRAF2-C, A Trimeric C-Terminal Domain of TNF Receptor-Associated Factor” (International Journal of Molecular Sciences, 2021).

Molecular target: the molecule itself
Assay: dynamic light scattering; TRAF2-C 4 uM in kinase buffer (20 mM Tris-HCl pH 7.6, 150 mM NaCl, 10% glycerol); 20-35 °C, where the particle distribution is sharp and mono-disperse

B1: TRAF2-C, C-terminal domain truncated form of TNF Receptor Associated Factor 2 (TRAF2) (domain or fragment, human, UniProt Q12933 310-501, looked up)
chain: DQDKIEALSSKVQQLERSIGLKDLAMADLEQKVLEMEASTYDGVFIWKISDFARKRQEAVAGRIPAIFSPAFYTSRYGYKMCLRIYLNGDGTGRGTHLSLFFVVMKGPNDALLRWPFNQKVTLMLLDQNNREHVIDAFRPDVTSSSFQRPVNDMNIASGCPLFCPVSKMEAKNSYVRDDAIFIKAIVDLTGL
notes: human TRAF2, C-terminal domain (TRAF2-C), residues 310-501; It describes the protein as a trimer in equilibrium with dimers and monomers; also called TRAF2-C domain; source: E. coli BL21 (DE3), purified (NiNTA, Sephadex G25)
B1: binds.
